Two substances from PMC5467389 can be followed below.

The target in assay [1] is HA-tagged spinophilin (human) (UniProt Q96SB3). Kind of assay: co-IP; HEK293 cells co-transfected with HA-spinophilin, V5-NF-M and kinase dead K72H myc-PKAc; low-ionic Tris buffer with 1% Triton X-100; HA or V5 immunoprecipitation, immunoblot. (A western blot detects proteins with antibodies after separation by electrophoresis.)
A further assay has as its target PP1. Kind of assay: spinophilin IP, spectral counting by MS. The following applies: reference: intact (contralateral) striatum; sites S17,S100.

Chain of UniProt Q96SB3 (Q96SB3 whole entry): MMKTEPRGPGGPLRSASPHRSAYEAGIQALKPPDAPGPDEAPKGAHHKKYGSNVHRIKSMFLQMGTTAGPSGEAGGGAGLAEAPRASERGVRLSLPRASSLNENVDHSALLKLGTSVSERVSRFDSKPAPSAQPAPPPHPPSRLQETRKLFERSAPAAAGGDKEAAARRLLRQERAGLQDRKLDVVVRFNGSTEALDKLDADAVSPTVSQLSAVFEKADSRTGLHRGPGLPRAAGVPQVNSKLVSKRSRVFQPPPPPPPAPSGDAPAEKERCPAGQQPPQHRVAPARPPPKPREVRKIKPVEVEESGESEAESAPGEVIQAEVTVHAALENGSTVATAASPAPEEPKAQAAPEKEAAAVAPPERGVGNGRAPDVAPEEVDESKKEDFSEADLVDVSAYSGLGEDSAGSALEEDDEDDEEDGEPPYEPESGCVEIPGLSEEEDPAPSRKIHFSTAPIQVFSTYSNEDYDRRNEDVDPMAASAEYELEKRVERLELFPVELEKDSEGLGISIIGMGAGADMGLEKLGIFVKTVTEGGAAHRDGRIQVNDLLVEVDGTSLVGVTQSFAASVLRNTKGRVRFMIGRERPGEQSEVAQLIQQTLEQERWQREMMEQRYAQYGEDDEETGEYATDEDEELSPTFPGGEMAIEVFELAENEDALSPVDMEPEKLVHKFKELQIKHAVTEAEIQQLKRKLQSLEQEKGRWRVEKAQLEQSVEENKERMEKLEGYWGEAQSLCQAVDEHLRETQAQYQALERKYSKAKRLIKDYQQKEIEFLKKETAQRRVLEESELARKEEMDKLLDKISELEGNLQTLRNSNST
Chain of spinophilin (Q6R891 whole entry, looked up, change not shown): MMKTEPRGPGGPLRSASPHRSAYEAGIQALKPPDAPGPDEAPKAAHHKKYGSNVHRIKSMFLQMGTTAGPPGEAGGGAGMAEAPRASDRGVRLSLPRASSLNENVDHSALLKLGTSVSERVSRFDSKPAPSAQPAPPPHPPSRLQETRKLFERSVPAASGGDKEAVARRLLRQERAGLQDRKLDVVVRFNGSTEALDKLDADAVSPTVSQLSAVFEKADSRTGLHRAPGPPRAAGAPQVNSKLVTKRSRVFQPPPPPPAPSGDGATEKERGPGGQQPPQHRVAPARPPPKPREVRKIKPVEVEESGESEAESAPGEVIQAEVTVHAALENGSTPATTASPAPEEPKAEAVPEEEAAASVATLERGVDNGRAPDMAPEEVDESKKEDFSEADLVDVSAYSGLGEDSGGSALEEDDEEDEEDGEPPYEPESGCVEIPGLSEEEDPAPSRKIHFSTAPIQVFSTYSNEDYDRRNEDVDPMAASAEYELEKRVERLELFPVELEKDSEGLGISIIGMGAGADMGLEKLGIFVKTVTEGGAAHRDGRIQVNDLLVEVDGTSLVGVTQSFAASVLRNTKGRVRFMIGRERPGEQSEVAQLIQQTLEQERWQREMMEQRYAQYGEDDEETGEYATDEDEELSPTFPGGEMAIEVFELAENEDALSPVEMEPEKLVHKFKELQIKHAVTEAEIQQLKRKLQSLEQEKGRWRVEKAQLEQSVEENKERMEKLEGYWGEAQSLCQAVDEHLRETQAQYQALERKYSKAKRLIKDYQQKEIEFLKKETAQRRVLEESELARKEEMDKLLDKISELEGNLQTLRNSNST

Substance “kinase dead (K72H mutant) myc-tagged PKAc (enzyme)” came in with a percent reduction of the association against wild type PKAc in assay [1] of 63%.
“spinophilin (from UniProt Q6R891) 6-OHDA-lesioned (ipsilateral) striatum” gave an other: percent increase over reference in the assay with PP1 of 28%.
